{
  "source": "paper PMC7652416",
  "about": "“Structural basis of ClpXP recognition and unfolding of ssrA-tagged substrates” (eLife, 2020)",
  "target": "the molecule itself",
  "experiment": "cryo-EM structure; single-chain ClpX^∆N (4 µM), ClpP (1.8 µM), ATPγS (2.5 mM) in 20 mM HEPES pH 7.5, 100 mM KCl, 25 mM MgCl2, 5 min at 25°C; equal volume of GFP-G3YG9SENYALAA (20 µM) and ATP (2.5 mM) added; vitrified within 15 s of final mixing",
  "data": [
    {"protein": "E. coli ClpP (enzyme, E. coli (strain K12) ClpP, UniProtKB P0A6G7; Double-ring tetradecamer of two heptameric rings; also called ClpP14; ClpP tetradecamer; source: recombinant (plasmid pT7 ClpP), purified as described (Kim et al., 2000; Bell et al., 2019); copies: 14) not shown", "values": [
      {"measurement": "stoichiometry N", "value": 14}
    ]}
  ]
}
